Values of other authors, collected in paper PMC5627252.
Like-named read-outs stand apart in the source and are kept apart here. Blank lines part the entries; values can stand above or below the substance they belong to.

What was measured:
FcγRIIIa (Homo sapiens) [1] = target: FcγRIIIa (Homo sapiens) (UniProt P08637)
FcγRIIIa (Homo sapiens) [2] = target: FcγRIIIa (Homo sapiens) (UniProt P08637); remark: listed apart in the source
FcγRIIIa (Homo sapiens) [3] = target: FcγRIIIa (Homo sapiens) (UniProt P08637); remark: listed apart in the source

FcγRIIIa (Homo sapiens), sequence (P08637 17-254): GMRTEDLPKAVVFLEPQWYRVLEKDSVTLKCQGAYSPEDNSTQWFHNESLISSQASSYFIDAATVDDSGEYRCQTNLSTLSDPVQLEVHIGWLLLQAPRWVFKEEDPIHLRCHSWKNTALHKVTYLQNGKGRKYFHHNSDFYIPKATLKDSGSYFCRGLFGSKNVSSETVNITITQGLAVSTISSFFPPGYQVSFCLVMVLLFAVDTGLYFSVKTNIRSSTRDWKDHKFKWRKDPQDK

Kd (FcγRIIIa (Homo sapiens) [1]): 995 nM
Substance: IgG1 Fc-GlcNAc Fc (from UniProt P01857)

Kd (FcγRIIIa (Homo sapiens) [2]): 32 nM
Substance: IgG1 Fc-Man5 Fc (from UniProt P01857)

Kd (FcγRIIIa (Homo sapiens) [3]): 26 nM
Substance: IgG1 Fc-Man8 Fc (from UniProt P01857)
